# According to PMC9768450:
# How the values were obtained:
# Test in all cases: purified protein
# [1] = tested on: CC(=O)SCCNC(=O)CCNC(=O)[C@H](O)C(C)(C)COP(=O)(O)OP(=O)(O)OC[C@H]1O[C@@H](n2cnc3c(N)ncnc32)[C@H](O)[C@@H]1OP(=O)(O)O; settings: co-substrate succinate 40 mM, 100 mM Tris-HCl pH 7.8, 5 mM MgCl2, 5 mM DTT, 55 °C
# [2] = tested on: CC(C)(COP(=O)(O)OP(=O)(O)OC[C@H]1O[C@@H](n2cnc3c(N)ncnc32)[C@H](O)[C@@H]1OP(=O)(O)O)[C@@H](O)C(=O)NCCC(=O)NCCSC(=O)CCC(=O)O; settings: co-substrate propionate 20 mM, 100 mM Tris-HCl pH 7.8, 5 mM MgCl2, 5 mM DTT, 55 °C
# CCC(=O)O = settings: co-substrate acetyl-CoA 2 mM, 100 mM Tris-HCl pH 7.8, 5 mM MgCl2, 5 mM DTT, 55 °C
# [3] = tested on: CCC(=O)SCCNC(=O)CCNC(=O)[C@H](O)C(C)(C)COP(=O)(O)OP(=O)(O)OC[C@H]1O[C@@H](n2cnc3c(N)ncnc32)[C@H](O)[C@@H]1OP(=O)(O)O; settings: co-substrate acetate 20 mM, 100 mM Tris-HCl pH 7.8, 5 mM MgCl2, 5 mM DTT, 55 °C
# O=C(O)CCCO = settings: co-substrate acetyl-CoA 1 mM, 100 mM Tris-HCl pH 7.8, 5 mM MgCl2, 5 mM DTT, 55 °C
substance,measurement,setting,value
succinyl-CoA:acetate CoA-transferase encoded by the AHF96498 gene (AHF96498 gene product) (Desulfurella acetivorans A63),Km,[1],200 ± 40 µM
same,Vmax,[1],90 µmol/min/mg
same,kcat/Km,[1],534000 M⁻¹ s⁻¹
same,Km,[2],1200 ± 300 µM
same,kcat/Km,[2],14000 M⁻¹ s⁻¹
same,Km,CCC(=O)O,3900 ± 800 µM
same,Vmax,CCC(=O)O,875 µmol/min/mg
same,kcat/Km,CCC(=O)O,223000 M⁻¹ s⁻¹
same,Km,[3],1100 ± 300 µM
same,Vmax,[3],669 µmol/min/mg
same,kcat/Km,[3],584000 M⁻¹ s⁻¹
same,Km,O=C(O)CCCO,400 ± 100 µM
same,Vmax,O=C(O)CCCO,7.7 µmol/min/mg
same,kcat/Km,O=C(O)CCCO,24000 M⁻¹ s⁻¹
